Results from patent publication US20060257383A1.

Molecular target: active MMP-2 (Calbiochem) (UniProt P08253)
Experiment: cell-based or functional assay

Chain of UniProt P08253 (P08253 110-660 limits assumed): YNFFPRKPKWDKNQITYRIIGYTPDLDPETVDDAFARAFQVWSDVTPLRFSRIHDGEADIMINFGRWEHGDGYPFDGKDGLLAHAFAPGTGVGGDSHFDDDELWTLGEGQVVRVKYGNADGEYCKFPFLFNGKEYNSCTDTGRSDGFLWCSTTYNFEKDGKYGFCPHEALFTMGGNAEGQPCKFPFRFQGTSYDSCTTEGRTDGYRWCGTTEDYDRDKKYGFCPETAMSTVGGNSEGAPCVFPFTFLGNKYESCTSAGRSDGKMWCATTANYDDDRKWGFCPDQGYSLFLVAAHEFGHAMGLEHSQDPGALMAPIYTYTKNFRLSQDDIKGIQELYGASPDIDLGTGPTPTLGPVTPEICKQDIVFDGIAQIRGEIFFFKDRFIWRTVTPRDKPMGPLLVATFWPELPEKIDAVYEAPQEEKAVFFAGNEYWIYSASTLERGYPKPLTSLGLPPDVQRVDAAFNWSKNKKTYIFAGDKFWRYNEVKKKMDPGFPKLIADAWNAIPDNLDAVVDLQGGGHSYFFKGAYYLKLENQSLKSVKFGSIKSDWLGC

- inhibition in MMP-2 protease activity compared to untransfected NIKS (EnzChek Gelatinase/Collagenase Assay, DQ gelatin): < 40%
Substance: TIMP-1-HA (exogenous human TIMP-1 with a C-terminal HA epitope tag, secreted by stable NIKS clone INV TIMP-1-HA:28) (from UniProt P01033 24-207)
